Paper doi:10.1101/2025.07.14.664805

Target: B. mori CS-1 (Centromeric Subunit protein 1) (Bombyx mori)
Experiment: SEC-MALS

stoichiometry N | Substance
1 | B. mori CS-2 (Centromeric Subunit protein 2) (natural protein)
1 | B. mori CS-3 (Centromeric Subunit protein 3) (natural protein)
1 | B. mori CS-4 (Centromeric Subunit protein 4) (natural protein)
